Assay results: the DeepSol protein solubility set

Assay: soluble on expression in E. coli; label from the status in PepcDB or PDB records

Sequence	soluble on expression in E. coli
SLLQLNSPHVHNLFNTPFSAAIMDDVVIGLEVHVQLNRLRTKLFCSCPLNYHQSPPNTHVCPVCLGMPGAMPVINKEAVKAAVKVAMALNAEIQPFTVFDRKNYFYPDLPKGFQISQYDRPLALGGYVTIELDGQEKRIQLKRVHMEEDPGKLSYKGSITTAKYSLIDYNRSGAPLLEIVTEPVMNSPKEARLFLNKLRMILEYLEVFDGDLEGAMRVDANISIRGSGRVEIKNISSFKGVEKALSYEIMRQKNLLQRGRSVVRETRHFDEARNITVSLRSKEEEQDYRYFPEPDLVPVLTEEIVREVEGTLPEMPEEKRERLKRQYGIGDNFAKVLILDVKMADYFEEVAKLVDPKLAASWIVDVLRGELNYRDWSFAKCWEVFKPEEFAKLLKYFEEDRITEKGVVEVIRTKLDEGGEIDAIIQKKGLFAIPKEEIIKFCKEAIEENPKAVEDYLSGKRQALNFLVGQVMKKTRGRADPADTAKLIEEMLS	soluble
MADPQGFIKYSRREPAHRPVPLRLMDHSEVYEKAPAGQIEEQAARCMDCGVPFCHEGCPLGNIIPEWNDLVRQGRWKEAYDRLHATNNFPEFTGRLCPAPCEGACVLGINDDSVTIKNVELEIVEKAFREGWVQPVIPSMSTGLSVAVVGSGPAGLAAAQQLTRAGHSVTVFERDDRLGGLMRYGVPEYKMENRWIDRRIEQMEAEGTTFQVGTSPRAAELALFDAILLATGTPVARELSVPGHDLNGIHAAMDYLTAQNRINEGDGEVSPINAKGKKVVIIGGGDTGTDCFGTALRQGAESVTQFDIRPRAPFQRADSTPWPMYPNLFRTATAHEEGEYIITGDESADEIAALGLAERAAGSTLGERKFAVNTVEFHGNNGHVTGLTGNQIRVVNGKREPIEGTEFPFEADLVLVALGFTGAEQGGLAHELGVGFDDRGRILRDSEYRSPTNSRVYIAGDNGRGQSLIVWAIAEGRACAAAIDADLMGETALPVAVAPQDVPLAVLEHHHHHH	not soluble
MGSDKIHHHHHHMYKIGIDVGGTNTDAVILDENQQLIHSVKMPTSEDIETGITESLHRVLSETGIDRSKVTHAMLGTTQCTNAIVERKKLAKVGVLRLGYPATASVLPYTAWPEDMVGFLSGKYKLTGGGYEYDGQVLSEINEAEIRETLASWKGEVESVAVVGVFSSLKNDQELAVQKIIEEELGADIPVSISSSVGSVGLIERENATILNAALFKVIAATSDGFEKALEQEGIEHAEIYLCQNDGTLMSLNYARQFPILTIACGPTNSIRGASYLAGLKDAMVLDVGGTTSDIGVLTDGFPRESSLAVDVGGVRTNFRMPDIISIGLGGGSIVREKDGDITIGPDSVGYRISEEALVFGGKTMTTTDIAVRLGMAEIGNPELVAHIPTDFAEKAYKKIADMTEDAIDKMKTSSGSVSLVLVGGGSMIIPDEISGVAQIFRDKNGPVANAIGASISQISGQYEQIYIYSQIEREEALQDAEQKAREQATLAGAVTDSIEVVEVEEIPLAYHPGNATRLRVKVVGDLV	not soluble
VLDVDTARRRIVDLTDAVRAFCTAHDDGLCNVFVPHATAGVAIIETGAGSDEDLVDTLVRLLPRDDRYRHAHGSYGHGADHLLPAFVAPSVTVPVSGGQPLLGTWQSIVLVDLNQDNPRRSVRLSFVEG	not soluble
MAGYGAKGIRKVGAFRSGLEDKVSKQLESKGIKFEYEEWKVPYVIPASNHTYTPDFLLPNGIFVETAGLWESDDRKKHLLIREQHPELDIRIVFSSSRTKLYKGSPTSYGEFCEKHGIKFADKLIPAEWIKEPKKEVPFDRLKRKGGKK	soluble
MRPIEEFVYVGNQVIVPDQASLMRCYYPIIGGEGYALYQYFVAFYDNGNHRHKFATILNHLNFGMQPLQESLAVLTAVDLLAFYHSPQGIYVVELKSPLSIEQFLKHAVYSSLLEQKIGEPAVDALKPTSLHGLQDLSKRFSDVFTDERLAQKSVSEIKPKNSFDLISFRNRMQADGLVFTDEKTDVPEIYKLSETYDMNWYDTYLLSKKTAVNHRIIVKRMQVQLEQAQAQKLGGDSALTETEKKILKAVKSGKPVDYLQSAKGPGGTVTNSEKKILTDLAQRGFMDEVINLMVAYSLGRTRSTNVNREYISKVANDFDFKKIVTAEQGLLALRSGYDKKSQRAKDDSKKKTNVPSWSDPDYDNQTNQADQAKLDEIRRRALAKLEKGKE	soluble
MVMIISTMEPQVSNGPTSNTSNGPSSNNRNCPSPMQTGATTDDSKTNLIVNYLPQNMTQEEFRSLFGSIGEIESCKLVRDKITGQSLGYGFVNYIDPKDAEKAINTLNGLRLQTKTIKVSYARPSSASIRDANLYVSGLPKTMTQKELEQLFSQYGRIITSRILVGQVTGVSRGVGFIRFDKRIEAEEAIKGLNGQKPSGATEPITVKFANNPSQKSSQALLSQLYQSPNRRYPGPLHHQAQRFRLDNLLNMAYGVKRFSPITIDGMTSLVGMNIPGHTGTGWCIFVYNLSPDSDESVLWQLFGPFGAVNNVKVIRDFNTNKCKGFGFVTMTNYDEAAMAITSLNGYRLGDRVLQVSFKTNKAHKS	soluble
MAVSKNVTVIPARKHTRKSKDEEKPKLRVAAYCRVSTDSEEQATSYDTQIEHYTAYIQGHPDWMLAGIFADDGISGTNTKKREEFNRMIDECMAGNIDMIITKSISRFARNTLDCLKYIRQLKDKNIPVYFEKENINTMDSKGEVMLTIMASLAQQESQSLSQNVKLGLQYRYQQGEIQVNCARFLGYTKDENKRLVVVPEEAEIVKRIYREYLEGASMLKIARGLEADGILNGAGNERWHTSNINNILRNEKYIGDALLQKTYTVDFLTKKRVKNNGIVPQYYVENSHEAIIPREVFMQVQEELIRRRIVHTSPNGKTRTFSSNHVFAQIIICGKCGEVFRRVHWNNRGKKSIVWRCVSRLENTGLFCDARTVLESTIEQVLVTAINQTLCDKDSFLTTLRDNIATIINRESDKALADIDKRLEELQTELLKLATSNADYEKVGDEIHSLRDQKQKLQVENANRDELKKQIADMSTFLKKQSTALAEYDKQLVRRLIDKVTVFEDKFTVEFKSGVTVDVDE	soluble
MGRRRSHERRDLPPNLYIRNNGYYCYRDPRTGKEFGLGRDRRIAITEAIQANIELFSGHKHKPLTARINSDNSVTLHSWLDRYEKILASRGIKQKTLINYMSKIKAIRRGLPDAPLEDITTKEIAAMLNGYIDEGKAASAKLIRSTLSDAFREAIAEGHITTNHVAATRAAKSEVRRSRLTADEYLKIYQAAESSPCWLRLAMELAVVTGQRVGDLCEMKWSDIVDGYLYVEQSKTGVKIAIPTALHIDALGISMKETLDKCKEILGGETIIASTRREPLSSGTVSRYFMRARKASGLSFEGDPPTFHELRSLSARLYEKQISDKFAQHLLGHKSDTMASQFRDDRGREWDKIEIK	soluble
MKTICVFAGSNPGGNEAYKRKAAELGVYMAEQGIGLVYGGSRVGLMGTIADAIMENGGTAIGVMPSGLFSGEVVHQNLTELIEVNGMHERKAKMSELADGFISMPGGFGTYEELFEVLCWAQIGIHQKPIGLYNVNGYFEPMMKMVKYSIQEGFSNESHLKLIHSSSRPDELIEQMQNYSYPILEKKWTEI	soluble
VAVGARCVCGRPLAVVTRPLLPGGVPFPTTCYLTGPEAVKAISHIEAEGKMKEYNDMLAENEDLRAGYERAHELYLAFRHEIALALEDSEEHIEGTSAGGMPVRVKCLHALLAQTLVMGEGANPIGDMALSAIKHEFDPAVCRCAVENEE	not soluble
MKQPTLAVIMTCHNRRNTTLACLQALYQQKNHFDVYLTDDGSTDGTAEFIKAEYPDVKIFQGDGNLFWVGGMHLAFGEAIKNQYDYYLWLNDDTFLEADALEKLLQVHENLAVEGYGQSIVVGSTQDPITKQATYGGAVKSKKWYSNKFEFLEPTSDVQKCDAMYGNCVLIPHSVTLKVGNIDTAFIHSLGDLDYALRARNLGLEHHHHHH	not soluble
MSQPRTVTVLGATGSIGHSTLDLIERNLDRYQVIALTANRNVKDLADAAKRTNAKRAVIADPSLYNDLKEALAGSSVEAAAGADALVEAAMMGADWTMAAIIGCAGLKATLAAIRKGKTVALANKESLVSAGGLMIDAVREHGTTLLPVDSEHNAIFQCFPHHNRDYVRRIIITASGGPFRTTSLAEMATVTPERAVQHPNWSMGAKISIDSATMMNKGLELIEAFHLFQIPLEKFEILVHPQSVIHSMVEYLDGSILAQIGSPDMRTPIGHTLAWPKRMETPAESLDFTKLRQMDFEAPDYERFPALTLAMESIKSGGARPAVMNAANEIAVAAFLDKKIGFLDIAKIVEKTLDHYTPATPSSLEDVFAIDNEARIQAAALMESLPA	soluble
MSDPRYQIDVSVVTRYLKEQSDPENSRFAFAYTITVQNNGSLSAKLLSRHWLITNGDGEVEEVRGAGVVGQQPNIDPGQSHTYSSGAVISTRVGTMQGSYQMFAEDGKRFDAEIAPFRLAVPGALHLEHHHHHH	soluble
MEQFINPRVKDIQISGIRQFSNMIQNYDNLISLTIGQSDFPTPSLVKEAAKRAITENYTSYTHNAGLLELRKAACNFVKDNYDLHYSPETETIVTIGASEAIDVAFRTILEPGTEVILPAPIYPGYEPIIRLCGATPIFIDVRETGFRLTAEALENAITEKTRCVVLPYPSNPTGVTLSKKELQDIADVLKDKNIFVLSDEIYSELVYEQTHTSIAHFPEMREKTIVINGLSKSHSMTGWRIGLLFAPSYLAGHILKVHQYNVTCATSIAQYAAIEALTAAKDAPKMMRHQYKKRRDYVYNRLIQMGLTVEKPTGAFYLFPYVGHLTSSSFDFALDLVKEAGLAVVPGTAFSEYGEGYLRLSYAYSIETLKEGCDRLEAFLQQKAKS	not soluble
MRAEDLFNDPKSYKRWYELHSKLYENERNVVRSFNLKDCLDVGSGPDIFHEEIGGRIVALDISLLMLKESKSDEKVLADALHLPFRDNSFKCVFSSVTVCFIEDVKGFIREMARITKERAIICFIARDSPWGEYYENLGKSGHKYYSHARFISRREFYVIINDFMKISRIRSTLKKMSETEIDGVYNDDSGSFICVEAIPMKPEPLSLSLNRHSGADPADPIS	not soluble
MASMTGGQQMGRGSGIVQQQSNLLRAIEAQQHLLQLTVWGIKQGGGGSEWEREISNYTDIIYRLIEESQNQQEKNEQELLALDKWASLWNWFDITNWLWYIQHHHHHH	soluble
MKRKHLSGKSIGIVFGTFAPMHVGHVDLITKEKRANDNVLVIVSGSNTQKDRGTRTGLSLNRRFRNVREIFYDDELIVVDKLDEADMPPYPEGWVPWVNRVKDLITKNTDGPEKITFYVGESEYVIELNRYYPQAQVELIECSVINISATEIRDNPIENWRFITKPFRRHFTRKVLVVGSASGGKTTLVKDLARTYNAPCSLEYAREYQEKYNVRDDELDTNDYIHLLTDQYAQTAEIIDNGQHSWLIFADTNSTVTKVYIDYYLKENISQEEFDLLDRLYQVTQAREKWDLIFVILPKSNYVDDGSRDMTMADNRTRDWFTKHLLDLLSPFKDKIVILVENCDSDSFFADNYHYAKKTIKERLHIEI	not soluble
MAVLKIISWNVNGLRAVHRKGFLKWFMEEKPDILCLQEIKAAPEQLPRKLRHVEGYRSFFTPAERKGYSGVAMYTKVPPSSLREGFGVERFDTEGRIQIADFDDFLLYNIYFPNGKMSEERLKYKLEFYDAFLEDVNRERDSGRNVIICGNFNTAHREIDLARPKENSNVSGFLPVERAWIDKFIENGYVDTFRMFNSDPGQYTWWSYRTRARERNVGWRLDYFFVNEEFKGKVKRSWILSDVMGSDHCPIGLEIELLEHHHHHH	soluble
YWASSQLTQLFLSTDLESLEPTCLSKDTIYQWKVVQTFGDRLRLRQRVLATAIVLLRRYMLKKNEEKGFSLEALVATCIYLSCKVEECPVHIRTICNEANDLWSLKVKLSRSNISEIEFEIISVLDAFLIVHHPYTSLEQAFHDGIINQKQLEFAWSIVNDSYASSLCLMAHPHQLAYAALLISCCNDENTIPKLLDLIKSTDAFKVILCVQRIISIYYFEDIEAAALEHHHHHH	soluble
